Measured values published in patent US20120114590A1 (priority 2005, published 2012).

How the values were obtained:
adenoviral vector AdGFP = test: Adenoviral vector (AdGFP) liver pathology model in C57Bl/6 mice; conditions: AdGFP-infected C57Bl/6 mice, 50 μg i.p., 7 doses
[1] = test system: spleens of transgenic mice; test: ISG expression in spleens of Eu-lck human IL-29 transgenic mice (real-time PCR); format: in vivo, mouse; conditions: spleens of Eu-lck IL-29 transgenic mice; fold expression relative to HPRT; average of two mice
Protocol: This promoter is active in T cells and B cells. Transgenic mice and their non-transgenic littermates (n=2/gp) were sacrificed at about 10 weeks of age. Spleens of mice were isolated. RNA was isolated from cell pellets using RNAEasy-kit® (Qiagen). RNA was treated with DNase to clean RNA of any contaminating DNA. cDNA was generated using Perkin-Elmer RT® mix. ISG gene induction was evaluated by real-time PCR using primers and probes (5′ FAM, 3′ NFQ) specific for mouse OAS, Pkr and Mx1. To obtain quantitative data, HPRT real-time PCR was duplexed with ISG PCR. Furthermore, a standard curve was obtained using known amounts of IFN stimulated mouse PBLs. All data are shown as expression relative to internal HPRT expression.

Polio virus [2] = format: cell-based; conditions: Vero
Polio virus [3] = format: cell-based; conditions: Vero cells, Neutral Red Assay
[4] = test system: 293 HEK cells overexpressing zcytor19; test: Inhibition of ligand-induced ISRE-luciferase signaling by soluble receptors; format: cell-based, human; conditions: 10 ng/ml ligand, 10 micrograms/ml soluble receptor, 4-hour; relative to PBS alone
Dengue virus [5] = format: cell-based; conditions: Vero cells, Neutral Red Assay
[6] = test system: Venezuelan equine encephalitis virus; format: cell-based; conditions: Vero cells, Neutral Red Assay
[7] = test system: Venezuelan equine encephalitis virus; format: cell-based; conditions: Vero
AML-12 cells = test: ISG induction in the mouse liver cell line AML-12 (real-time PCR); format: cell-based; conditions: AML-12, 20 ng/ml, 48 hour time point; mRNA relative to HPRT gene expression
Protocol: AML-12 cells were plated in 6-well plates in complete DMEM media at a concentration of 2×10^6 cells/well. […] As a control, cells were either stimulated with mouse IFNα (positive control) or unstimulated (negative). […] RNA was isolated from cell pellets using RNAEasy-kit® (Qiagen, Valencia, Calif.). RNA was treated with DNase (Millipore, Billerica, Mass.) to clean RNA of any contaminating DNA. cDNA was generated using Perkin-Elmer RT mix. ISG gene induction was evaluated by real-time PCR using primers and probes specific for mouse OAS, Pkr and Mx1. To obtain quantitative data, HPRT real-time PCR was duplexed with ISG PCR. A standard curve was obtained using known amounts of RNA from IFN-stimulated mouse PBLs. All data are shown as expression relative to internal HPRT expression.

Dengue virus [8] = format: cell-based; conditions: Vero
Rhino 2 = format: cell-based, rhino virus; conditions: Rhino 2, KB
Adenovirus = format: cell-based
BVDV = BVDV inhibition of cytopathic effect assay in MDBK cells; format: cell-based, bovine viral diarrhea virus; conditions: MDBK bovine kidney cells, day 7
Protocol: The MDBK cells were propagated in Dulbecco's modified essential medium (DMEM) containing phenol red with 10% horse serum, 1% glutamine and 1% penicillin-streptomycin. CPE inhibition assays were performed in DMEM without phenol red with 2% FBS, 1% glutamine and 1% Pen-Strep. On the day preceding the assays, cells were trypsinized (1% trypsin-EDTA), washed, counted and plated out at 10^4 cells/well in a 96-well flat-bottom BioCoat® plates (Fisher Scientific, Pittsburgh, Pa.) in a volume of 100 μl/well. The next day, the medium was removed and a pre-titered aliquot of virus was added to the cells. The amount of virus was the maximum dilution that would yield complete cell killing (>80%) at the time of maximal CPE development (day 7 for BVDV). Cell viability was determined using a CellTiter96® reagent (Promega) according to the manufacturer's protocol, using a Vmax plate reader (Molecular Devices, Sunnyvale, Calif.). Test samples were tested at six concentrations each, diluted in assay medium in a half-log series. IFNα and RIBAVIRIN® were used as positive controls. Test sample were added at the time of viral infection. The average background and sample color-corrected data for percent CPE reduction and percent cell viability at each concentration were determined relative to controls and the IC50 calculated relative to the TC50.

HHV-8 = HHV-8 replication in BCBL-1 cells (TaqMan PCR extracellular HHV-8 DNA; dye uptake TC50); format: cell-based, human herpesvirus-8
Protocol: The therapeutic index (TI) is calculated as TC50/IC50.

Coxsackie B4 virus = format: cell-based; conditions: KB
Pichinde virus = format: cell-based
[9] = test system: Respiratory syncytial virus; format: cell-based
[10] = test system: human marrow mononuclear cells
Rhino 9 = format: cell-based, rhino virus; conditions: Rhino 9, HeLa cells, Neutral Red Assay
[11] = test system: Respiratory syncytial virus; format: cell-based; conditions: MA-104 cells, Neutral Red Assay
[12] = test system: Influenza (type A [H3N2]); format: cell-based; conditions: Maden-Darby Canine Kidney

B1: IL-29: human IL-29 cytokine polypeptide (zcyto21), e.g. SEQ ID NO:20 (protein, listed as Homo sapiens)
chain: MAAAWTVVLVTLVLGLAVAGPVPTSKPTTTGKGCHIGRFKSLSPQELASFKKARDALEESLKLKNWSCSSPVFPGNWDLRLLQVRERPVALEAELALTLKVLEAAAGPALEDVLDQPLHTLHHILSQLQACIQPQPTAGPRPRGRLHHWLHRLQEAPKKESAGCLEASVTFNLFRLLTRDLKYVADGNLCLRTSTHPEST
modifications: SIGNAL (1)...(19)
liver histology: cellular changes versus PBS treatment group (adenoviral vector AdGFP): less proliferation of sinusoidal cells, fewer mitotic figures and fewer changes in the hepatocytes | liver histology: liver and inflammation scores versus PBS-treated group (adenoviral vector AdGFP): lower liver and inflammation scores | average serum AST (adenoviral vector AdGFP; n=8): 162 U/L | serum ALT (adenoviral vector AdGFP; n=8): 184 U/L | Mx1 [1]: 21 | OAS [1]: 12 | PkR [1]: 8 | EC50 Visual (Polio virus [2]): >10 µg/mL | IC50 Visual (Polio virus [2]; numerator of SI): >10 µg/mL | EC50 NR (Polio virus [3]): >10 µg/mL | IC50 NR (Polio virus [3]): >10 µg/mL | Percent Inhibition of Ligand-induced ISRE Signaling by HuCRF2-4-Fc [4]: 79% | Percent Inhibition of Ligand-induced ISRE Signaling by Huzcytor19-Fc [4]: 45% | Percent Inhibition of Ligand-induced ISRE Signaling by Huzcytor19-Fc/huCRF2-4-Fc [4]: 16% | Percent Inhibition of Ligand-induced ISRE Signaling by Muzcytor19-Ig [4]: 103% | EC50 NR (Dengue virus [5]): 0.05 µg/mL | IC50 NR (Dengue virus [5]): >10 µg/mL | EC50 NR [6]: 0.05 µg/mL | IC50 NR [6]: >10 µg/mL | EC50 Visual [7]: 0.012 µg/mL | IC50 Visual ([7]; numerator of SI): >10 µg/mL | Mx1 (AML-12 cells): 0.07 | OAS (AML-12 cells): 0.04 | PkR (AML-12 cells): 0.02 | EC50 Visual (Dengue virus [8]): 0.032 µg/mL | IC50 Visual (Dengue virus [8]; numerator of SI): >10 µg/mL | EC50 Visual (Rhino 2): >10 µg/mL | IC50 Visual (Rhino 2; numerator of SI): >10 µg/mL | EC50 Visual (Adenovirus; A549): >10 µg/mL | IC50 Visual (Adenovirus; A549, numerator of SI): >10 µg/mL | IC50 (inhibition of cell death induced by BVDV) (BVDV): 0.19 µg/mL | TI (TC50/IC50) (HHV-8): > 1.85 | IC50 (extracellular HHV-8 DNA) (HHV-8; six days): 6.5 µg/mL | EC50 Visual (Coxsackie B4 virus): >10 µg/mL | IC50 Visual (Coxsackie B4 virus; numerator of SI): >10 µg/mL | EC50 NR (Pichinde virus): >10 µg/mL | IC50 NR (Pichinde virus): >10 µg/mL | EC50 Visual ([9]; MA-104): >10 µg/mL | IC50 Visual ([9]; MA-104, numerator of SI): >10 µg/mL | bone marrow cell expansion ([10]; in the presence of IL-2 or IL-15): small inhibition | expansion of bone marrow cells ([10]; in the presence of IL-3, IL-4, IL-5, IL-7, IL-10, IL-12, IL-21 or no added cytokine): no significant effect | EC50 NR (Rhino 9): 0.982 µg/mL | IC50 NR (Rhino 9): >10 µg/mL | EC50 NR [11]: >10 µg/mL | IC50 NR [11]: >10 µg/mL | EC50 Visual [12]: >10 µg/mL | IC50 Visual ([12]; numerator of SI): >10 µg/mL
